Tested on: T1, NsrX (Alr1976) (Anabaena sp. strain PCC 7120), ORF:44a8eb4f
T1 sequence: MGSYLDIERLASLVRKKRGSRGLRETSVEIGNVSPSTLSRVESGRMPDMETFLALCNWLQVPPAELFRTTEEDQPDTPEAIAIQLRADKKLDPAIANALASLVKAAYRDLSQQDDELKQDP
Assay: EMSA
Conditions: 10 mM Bis-Tris-HCl pH 7.5, 40 mM KCl, 0.1 mg/mL BSA, 5% glycerol, 50 ng DNA, 50-100 ng ifpkn22 competitor, 30 min room temperature; NsrX +100 uM MnCl2 (also in …)

**Q.** For “CATCTTGGAAACCAAGTTGCACAAACATCAGTAAGACAATAAAAGCAATGCCAGCTACAGCTATAAGAAAACGAATTTTCTGTTGGACTAGCTGTAGCCATGCTAAAGGAATTTTAAAATTCATATTGATTTTGTCAGTTGACAGTTGATAGTTGATAGTTGTCAGTTGACTAATGACAATTAAATTTGAATCGCTACATCAACTTGTAAGTTGGTCAAACGTCCTACCCGTTCGCTATCTGCG (double strand) [PhgdC]”, which binding is on record?
**A.** binds

**Q.** How did the binding turn out when “GGCGTGTGGCTCTTGTTCTAGTAGTACAGCCACCTTAAAGATAGCGATTGAATCCAGATTACGCGATCGCATCAACCCCAGCCTAGTAGTAGAAGCAGTTTAGTTAACAGTTAACAGTAAACCGTTAACTAACACCCAAAAGAACTTTCACAACTACATAACGAACCCATCATGAACACTAATTCTACTGGTTTTTCTGTGGAGCGATCGCCCCCTCTTCGGCGACGTTCTACAAACCCCTCACAGCCATAGCTCAACAGGCGTGAGATCCAAACACAAAGACCGACCAACTAACCAACC (double strand) [PnifHDK]” was run?
**A.** binds
